Interaction score data for 4 molecules are collected here from publication PMC10397247.

Assay [1] has as its target T1, P5bHq.
T1 chain: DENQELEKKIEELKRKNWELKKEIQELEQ
Nature of the assay: two-hybrid library CCNG1.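 Also: natural log of median RNA to DNA barcode read ratio; higher means stronger binding.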

For assay [2], the target named is T2, P6bHq.
T2 chain: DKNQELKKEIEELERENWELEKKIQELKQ
Nature of the assay: two-hybrid library CCNG1.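 Also: natural log of median RNA to DNA barcode read ratio; higher means stronger binding.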

Assay [3] has as its target T3, P7bHq.
T3 chain: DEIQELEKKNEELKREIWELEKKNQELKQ
Put plainly: two-hybrid library CCNG1.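 Also: natural log of median RNA to DNA barcode read ratio; higher means stronger binding.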

In assay [4] the target is T4, P4bHq.
T4 chain: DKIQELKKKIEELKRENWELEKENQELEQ
Put plainly: two-hybrid library CCNG1.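 Also: natural log of median RNA to DNA barcode read ratio; higher means stronger binding.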

Assay [5] deals with T5, P9bHq.
T5 chain: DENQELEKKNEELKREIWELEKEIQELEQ
Nature of the assay: two-hybrid library CCNG1.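 Also: natural log of median RNA to DNA barcode read ratio; higher means stronger binding.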

The target in assay [6] is T6, P8bHq.
T6 chain: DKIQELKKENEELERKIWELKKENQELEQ
Put plainly: two-hybrid library CCNG1.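 Also: natural log of median RNA to DNA barcode read ratio; higher means stronger binding.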

Assay [7] concerns the target T7, 4H906-bN.
T7 chain: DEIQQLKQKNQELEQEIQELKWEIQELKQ
Put plainly: two-hybrid library CCNG1.

Assay [8] addresses T8, 4H3613-bN.
T8 chain: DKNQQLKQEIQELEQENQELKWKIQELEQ
Nature of the assay: two-hybrid library CCNG1.

Assay [9] has as its target T9, 4H3298-bN.
T9 chain: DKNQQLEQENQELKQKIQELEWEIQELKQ
Nature of the assay: two-hybrid library CCNG1.

Assay [10] has as its target T10, 4H3974-bN.
T10 chain: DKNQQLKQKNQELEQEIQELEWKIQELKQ
Put plainly: two-hybrid library CCNG1.

Assay [11] deals with T11, 4H3631-bN.
T11 chain: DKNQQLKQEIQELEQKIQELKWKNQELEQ
Put plainly: two-hybrid library CCNG1.

For assay [12], the target named is T12, 4H3414-bN.
T12 chain: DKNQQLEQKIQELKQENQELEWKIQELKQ
Put plainly: two-hybrid library CCNG1.

Assay [13] has as its target T13, 4H570-bN.
T13 chain: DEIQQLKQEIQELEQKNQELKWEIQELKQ
Put plainly: two-hybrid library CCNG1.

For assay [14], the target named is T14, 4H3858-bN.
T14 chain: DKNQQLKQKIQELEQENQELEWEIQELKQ
Nature of the assay: two-hybrid library CCNG1.

In assay [15] the target is T15, 4H3497-bN.
T15 chain: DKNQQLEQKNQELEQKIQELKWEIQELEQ
Nature of the assay: two-hybrid library CCNG1.

Assay [16] addresses T16, 4H3926-bA.
T16 chain: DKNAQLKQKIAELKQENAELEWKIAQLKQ
Nature of the assay: two-hybrid library CCNG1.

Assay [17] concerns the target T17, 4H626-bN.
T17 chain: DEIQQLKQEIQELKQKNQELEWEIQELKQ
Put plainly: two-hybrid library CCNG1.

The target in assay [18] is T18, 4H3462-bN.
T18 chain: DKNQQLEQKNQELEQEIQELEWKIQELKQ
Put plainly: two-hybrid library CCNG1.

Assay [19] addresses T19, 4H3175-bN.
T19 chain: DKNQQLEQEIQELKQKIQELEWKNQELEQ
Nature of the assay: two-hybrid library CCNG1.

The target of assay [20] is T20, 4H3172-bN.
T20 chain: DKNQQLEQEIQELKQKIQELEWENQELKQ
Nature of the assay: two-hybrid library CCNG1.

The target in assay [21] is T21, 4H1985-bN.
T21 chain: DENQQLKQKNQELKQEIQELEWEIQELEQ
Put plainly: two-hybrid library CCNG1.

For assay [22], the target named is T22, 4H591-bN.
T22 chain: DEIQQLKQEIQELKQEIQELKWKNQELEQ
Nature of the assay: two-hybrid library CCNG1.

Assay [23] has as its target T23, P3bH1.
T23 chain: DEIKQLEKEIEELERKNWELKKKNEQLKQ
Put plainly: two-hybrid library CCNG1.

Assay [24] addresses T24, 4H1710-bN.
T24 chain: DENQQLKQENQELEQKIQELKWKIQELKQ
Put plainly: two-hybrid library CCNG1.

In assay [25] the target is T25, 4H3162-bN.
T25 chain: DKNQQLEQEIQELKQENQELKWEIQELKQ
Nature of the assay: two-hybrid library CCNG1.

The target of assay [26] is T26, 4H584-bN.
T26 chain: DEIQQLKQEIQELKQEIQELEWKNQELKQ
Put plainly: two-hybrid library CCNG1.

Assay [27] has as its target T27, 4H235-bN.
T27 chain: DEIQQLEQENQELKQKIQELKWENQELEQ
Put plainly: two-hybrid library CCNG1.

The target in assay [28] is T28, 4H1899-bN.
T28 chain: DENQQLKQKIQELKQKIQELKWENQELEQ
Nature of the assay: two-hybrid library CCNG1.

Assay [29] concerns the target T29, 4H3277-bN.
T29 chain: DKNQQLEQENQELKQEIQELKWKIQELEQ
Put plainly: two-hybrid library CCNG1.

For assay [30], the target named is T30, 4H850-bN.
T30 chain: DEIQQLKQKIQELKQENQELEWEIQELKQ
Put plainly: two-hybrid library CCNG1.

Assay [31] has as its target T31, 4H3817-bN.
T31 chain: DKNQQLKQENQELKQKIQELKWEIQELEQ
Put plainly: two-hybrid library CCNG1.

Assay [32] concerns the target T32, 4H619-bN.
T32 chain: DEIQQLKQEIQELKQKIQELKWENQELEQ
Put plainly: two-hybrid library CCNG1.

The target of assay [33] is T33, 4H1804-bN.
T33 chain: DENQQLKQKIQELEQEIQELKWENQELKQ
Nature of the assay: two-hybrid library CCNG1.

Assay [34] has as its target T34, 4H3628-bN.
T34 chain: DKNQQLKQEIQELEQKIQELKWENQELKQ
Put plainly: two-hybrid library CCNG1.

The target in assay [35] is T35, 4H3129-bN.
T35 chain: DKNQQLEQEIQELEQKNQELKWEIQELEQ
Nature of the assay: two-hybrid library CCNG1.

In assay [36] the target is T36, 4H3926-bN.
T36 chain: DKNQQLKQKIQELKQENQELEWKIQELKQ
Nature of the assay: two-hybrid library CCNG1.

Assay [37] concerns the target T37, 4H3638-bN.
T37 chain: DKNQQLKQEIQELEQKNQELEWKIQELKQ
Put plainly: two-hybrid library CCNG1.

Assay [38] deals with T38, APC4436-AA.
T38 chain: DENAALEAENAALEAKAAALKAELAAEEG
Put plainly: two-hybrid library CCmax. Particulars: mean of both orientations.

Assay [39] deals with T39, APC6108-AA.
T39 chain: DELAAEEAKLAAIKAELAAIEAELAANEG
Put plainly: two-hybrid library CCmax. Particulars: mean of both orientations.

Assay [40] has as its target T40, APC232-AA.
T40 chain: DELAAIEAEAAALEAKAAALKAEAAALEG
Put plainly: two-hybrid library CCmax. Particulars: mean of both orientations.

Assay [41] deals with T41, APC8910-AA.
T41 chain: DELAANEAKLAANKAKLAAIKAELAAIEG
Nature of the assay: two-hybrid library CCmax.

In assay [42] the target is T42, APC1015-AA.
T42 chain: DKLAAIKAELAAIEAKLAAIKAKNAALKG
Nature of the assay: two-hybrid library CCmax. Particulars: mean of both orientations.

Assay [43] addresses T43, APC9319-AA.
T43 chain: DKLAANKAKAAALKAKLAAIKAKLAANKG
Put plainly: two-hybrid library CCmax. Particulars: mean of both orientations.

Assay [44] deals with T44, APC5383-AA.
T44 chain: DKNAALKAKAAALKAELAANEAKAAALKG
Put plainly: two-hybrid library CCmax. Particulars: mean of both orientations.

The target of assay [45] is T45, 4H716-AA.
T45 chain: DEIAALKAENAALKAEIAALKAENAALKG
Put plainly: two-hybrid library CCmax. Particulars: mean of both orientations.

Assay [46] deals with T46, APC2237-AA.
T46 chain: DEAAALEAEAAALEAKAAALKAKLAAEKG
Nature of the assay: two-hybrid library CCmax. Particulars: mean of both orientations.

The target in assay [47] is T47, APC7099-AA.
T47 chain: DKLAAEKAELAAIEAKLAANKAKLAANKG
Put plainly: two-hybrid library CCmax. Particulars: mean of both orientations.

Assay [48] deals with T48, APC2405-AA.
T48 chain: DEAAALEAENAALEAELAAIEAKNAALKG
Nature of the assay: two-hybrid library CCmax. Particulars: mean of both orientations.

Assay [49] has as its target T49, APC4011-AA.
T49 chain: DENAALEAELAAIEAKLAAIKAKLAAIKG
Nature of the assay: two-hybrid library CCmax. Particulars: mean of both orientations.

The target of assay [50] is T50, APC3645-AA.
T50 chain: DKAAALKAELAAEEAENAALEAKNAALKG
Nature of the assay: two-hybrid library CCmax. Particulars: mean of both orientations.

The target of assay [51] is T51, APC4264-AA.
T51 chain: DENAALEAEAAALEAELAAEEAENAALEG
Nature of the assay: two-hybrid library CCmax. Particulars: mean of both orientations.

The target of assay [52] is T52, 4H3330-AA.
T52 chain: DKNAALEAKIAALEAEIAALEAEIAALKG
Put plainly: two-hybrid library CCmax.

Assay [53] concerns the target T53, 4H807-AA.
T53 chain: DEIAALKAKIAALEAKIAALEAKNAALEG
Put plainly: two-hybrid library CCmax. Particulars: mean of both orientations.

In assay [54] the target is T54, APC1434-AA.
T54 chain: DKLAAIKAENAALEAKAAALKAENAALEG
Put plainly: two-hybrid library CCmax. Particulars: mean of both orientations.

Assay [55] has as its target T55, 4H733-AA.
T55 chain: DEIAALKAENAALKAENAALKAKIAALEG
Put plainly: two-hybrid library CCmax. Particulars: mean of both orientations.

For assay [56], the target named is T56, APC8191-AA.
T56 chain: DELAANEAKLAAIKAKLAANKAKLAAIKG
Put plainly: two-hybrid library CCmax. Particulars: mean of both orientations.

Assay [57] concerns the target T57, APC9096-AA.
T57 chain: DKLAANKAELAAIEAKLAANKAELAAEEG
Nature of the assay: two-hybrid library CCmax. Particulars: mean of both orientations.

In the case of DEIQELEKEIEELERKNWELKKKNQELKQ [P3bHq], the interaction score in assay [1] was 1.1; in [2], -0.227; in [3] it was 0.482; in assay [4], 1.75; in assay [5], -0.595; in assay [6], 0.414.

For the molecule DKIQELKKKIEELKRENWELEKENQELEQ [P4bHq], the interaction score is -1.27 in assay [1]; -0.00957 in assay [2]; -1.11 in assay [3]; -0.613 in assay [4]; -0.875 in assay [5]; -0.273 in assay [6].

With DENQQLKQENQELEQKIQELKWKIQELKQ [4H1710-bN], the interaction score in assay [7] is 0.452; in [8], -0.41; in assay [9], 0.498; in [10], 0.85; in assay [11], 0.993; in assay [12], -0.297. The interaction score is 0.578 in [13]; -0.718 in assay [14]; 0.701 in assay [15]; -0.849 in [16]; 0.722 in [17]; -0.312 in assay [18]. In addition, the interaction score was -0.28 in [19]; -0.194 in [20]; 1.36 in [21]; -0.724 in assay [22]; -2.08 in assay [23]; 0.191 in [24]. The interaction score in assay [25] is 0.233; in assay [26], 0.273; in [27], -2.91; in assay [28] it was 0.0366; in [29], 0.0226; in assay [30] it was 0.177. The interaction score in [31] was 1.23; in [32] it was 0.707; in assay [33], -0.254; in assay [34], 1.45; in [35], -0.785; in assay [36], -0.569. The molecule also showed an interaction score in assay [37] of -0.0052.

As to DKNAALEAKIAALEAEIAALEAEIAALKG [4H3330-AA], the interaction score in [38] was -1.42; in assay [39], 0.0413; in assay [40], -1.1; in assay [41] it was -0.0896; in assay [42] it was -0.658; in assay [43], 0.302. Moreover, the interaction score was -1.16 in [44]; -1.14 in assay [45]; -0.433 in assay [46]; -1.98 in assay [47]; -1.07 in [48]; 2.04 in [49]. Moreover, the interaction score in [50] is -1.25; in assay [51], -1.37; in assay [52], 1.32; in assay [53] it was -1.35; in [54] it was -1.62; in assay [55] it was -1.48. Also, the interaction score in assay [56] is 1.43; in [57] it was -1.65.
